# Reference: the nanobody polyreactivity screen of Harvey et al. (2022)
# Test: yeast display, Sf9 membrane polyspecificity reagent, FACS + sequencing; frameworks hold sequencing errors
# Outline: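 In a synthetic yeast display library (Saccharomyces cerevisiae BJ5465), nanobody expression was induced with galactose for 36–48 hours. FACS gates were set low and high (top ~1%) using anti-HA fluorescence for expression and streptavidin fluorescence for binding of the Sf9 membrane reagent. Each polyreactivity label is drawn from the gate of origin.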
row,Sequence,polyreactivity (PSR sort gate)
1,QVQLVESGGGLVQAGGSLRLSCAASGLTFGDYAMGWYRQAPGKEREFVAAISSSTGRTYYADSVKGRFTISRDNAKNTVYLQMNSLKPEDTAVYYCAVRYIYPSHYGYDYWGQGTQVSVSS,low polyreactivity
2,QVQLVESGGGLVQAGGSLRLSCAASGLTFGDYTMGWYRQAPGKERELVAAITWSGASTYSADSVKGRFTISRDNAKNTVYLQMNSLKPEDTAVYYCAAERTPSYRAYDYWAQGTQVTVSS,low polyreactivity
3,QVQLVESGGGLVQAGGSLRLSCAASGLTFGFYAMGWYRQAPGKERELVAGISNGGSTNYADSVKGRFTISRDNAKNTVYLQMNSLKPEDTAVYYCAARLYARRLYDYWGQGTQVTVSS,low polyreactivity
4,QVQLVESGGGLVQAGGSLRLSCAASGLTFGGYAMGWYRQAPGKERELVAAISRSGGSTYYADSVKGRFTISRDNAKNTVYLQMNSLQPEDTAVYYCNGGRGTKYDYWGQGTQVTVSS,low polyreactivity
5,QVQLVESGGGLVQAGGSLRLSCAASGLTFGGYVMGWYRPAPGKERELVAAISWSGTRTYYADSVKGRFTISRDNAKNTVYLQMNSLKPEDTAVYYCAARVKSYNRGYYWGQGTQVTVSS,high polyreactivity
6,QVQLVESGGGLVQAGGSLRLSCAASGLTFGHYAMGWYRQAPGKERELVATISSRGVSTRYADSVKGRFTISRDTAKNTVYLQMNSLKPEDTAVYYWHARDYTWGKYYSSKIGYYYWGQGTQVTVSS,high polyreactivity
7,QVQLVESGGGLVQAGGSLRLSCAASGLTFGIYTMGWYRQAPGKERELVAAINWIGTRTYYADSVKGRFTLSRDNAKNTVYLQMNSLKPEDTAVYYCATVIGYTKRKYDYWGQGTQVTVSS,high polyreactivity
8,QVQLVESGGGLVQAGGSLRLSCAASGLTFGLYAMGWYRQAPGIERELVAGITAGGRTYYADSVKGRFTISRDNAKNTVYLQMNSLKPEQTAVYYCATVNYRSGRGYRRVYTAYYYWGQGTQVTVSS,low polyreactivity
9,QVQLVESGGGLVQAGGSLRLSCAASGLTFGNYAMGWYRQAPGKERELVAAISWGGGITYYADSVKGRFTISRDNAKNTVYLQMNSLKPEDTAVYYCAADVYFKSTPEYLYDYWGQGTQVTVSS,low polyreactivity
10,QVQLVESGGGLVQAGGSLRLSCAASGLTFGPNAMGWYRQAPGKERELVAAITKSGGSTYYADSVKGRFTISRDNAKNTVYLQMNSLKPEDTAVFYCAARAGYKVFGYWGQGTQVTVSS,high polyreactivity
11,QVQLVESGGGLVQAGGSLRLSCAASGLTFGPYAMGWYRQAPGKERELVAAISLSDTDTYYAASVKGRFTISRDNAKNTGYLQMNSLKPEDTAVYYCAAEDGGLYDYWGQGTQVTVSA,high polyreactivity
12,QVQLVESGGGLVQAGGSLRLSCAASGLTFGRNAMGWYRQAPGKERELVAAISQSGDRTYYADSVKGRFTISRDNAKNTVYLQMNSLKPEDTAVYYCNAVSSRGWYDYWGQGTQVTLSS,high polyreactivity
13,QVQLVESGGGLVQAGGSLRLSCAASGLTFGRNAMGWYRQAPGKERELVAAISRSGGRTSYADSVKGRFTISRDNAKNTVYLQMNSLKPEDTAVYYCAARSDVYTHDYWGQGTQVTVSS,high polyreactivity
14,QVQLVESGGGLVQAGGSLRLSCAASGLTFGRNAMGWYRQAPGKERELVAAITFNGGSTYYADSVKGRFTISRDNAKNTVYLQMNSLKPEDTAVYYCAARLWRRSRFDYWGQGTQVTVSS,high polyreactivity
15,QVQLVESGGGLVQAGGSLRLSCAASGLTFGVYAMGWYRQAPGKERELVASIRSGGSTYYADSVKGRFTISRDNAKNTVYLQMNSLKPEDTAVYYCAKGTFDLHYRKRYNYWGQGTQVTVSS,low polyreactivity
16,QVQLVESGGGLVQAGGSLRLSCAASGLTFGWYTMGWYRQAPGKERELVAAISWSGGSTYYADSVKGRFTISRDNAKNTVYLQMNSLKPEDTAVYYCAADQSTVLDVGSWGQGTQVTVSS,low polyreactivity
17,QVQLVESGGGLVQAGGSLRLSCAASGLTFGWYTMGWYRQAPGKERELVADITWSGGSTYYADSVKGRFTISRDNAKNTVYLQMNSLKPEDTAVYYCAVRYFVIPWYAYDYWGQGTQVTVSS,low polyreactivity
18,QVQLVESGGGLVQAGGSLRLSCAASGLTFGYNAMGWYRQAPGKERELVAAITYGGGRTYYADSVKGRFTISRDNAMNTVYLQMNSLKPEDPAVYYCNVVWKAYAEYDYWGQGTQVTVSS,high polyreactivity
19,QVQLVESGGGLVQAGGSLRLSCAASGLTFGYNAMGWYRQAPGNERELVATISYSGGRTYYADSVKGRFTISRDNAKTTVYLQMNSLKPEDTAVYDCATRQRHWSGEFDYWGQGTQVTVSS,high polyreactivity
20,QVQLVESGGGLVQAGGSLRLSCAASGLTFHAYAMGWYRQAPGKEREFVAAITRSGSSTSYAYSVKGRFTISRDNAKNTVYLQMNSLKPEDTAVYYCAAQGSRKYRNDYWGQGTQVTVSS,high polyreactivity
21,QVQLVESGGGLVQAGGSLRLSCAASGLTFHPYAMGWYRQAPGKERELVAAISSRGTSTYYADSVKGRFTISRDNAKNTVYLQMNSLKPEDTAVYYCAARHGPRAEAMYYWGQGTQVTVSS,high polyreactivity
22,QVQLVESGGGLVQAGGSLRLSCAASGLTFHQNAMGWYRKAPGKDRELVAAISRRGGSTYYADSVKGRFTFSRDNAKNTVYLQMNSLKPEDTAVYYSNTRGKSGLWCYNYWGQGTQVTVSS,high polyreactivity

row,Sequence,polyreactivity (PSR sort gate)
1,QVQLVESGGGLVQAGGSLRLSCAASGLTFHRYAMGWYRQAPGKERELVAAINYSGGRTYYADSVKGRFTISRDNAKNTVYLQMNSLKPEHTAVYYCAAPRASGYYWGQGTQVTVSS,high polyreactivity
2,QVQLVESGGGLVQAGGSLRLSCAASGLTFHWYTMGGYRQAPGKERELVAAISSRGGSTYYADSVKGRFTISRDNAKNTDYLQMNSLKPEDTAVYYCAKARRVGFTPIYENWGQGTQVTVSS,high polyreactivity
3,QVQLVESGGGLVQAGGSLRLSCAASGLTFIFNAMGWYRQAPGKERELVADISSGVNTNYADSVKGRFTISRDNAKNTVYLQMNSLKPEDTAVYYCNARRYWLRYDYWGQGTQVTVSS,low polyreactivity
4,QVQLVESGGGLVQAGGSLRLSCAASGLTFIPNAMGWYREAPGKERELVAAISGTGGSTYYADSVKGRFTISRDNAKNTVYLLMNSLKPEDTAVYYCAARRRYKSGYWGQGTQVTVSS,high polyreactivity
5,QVQLVESGGGLVQAGGSLRLSCAASGLTFIYYAMGWYRQAPGKERELVAAISVSGGSTYYADSVKGRFTISRDNAKNTVYLQMNSLKPEDTAVYYCAADWFVHKPRYQYSFDYWGQGTQVTVSS,low polyreactivity
6,QVQLVESGGGLVQAGGSLRLSCAASGLTFKSYAMGWYRQAPGKERELVAAISWRGGRTYYADSVKGRFTISRDNAKNTVYLQMNSLKPEDTAVYYSNARSQQWWLSRYNYWGQGTQVTVSS,high polyreactivity
7,QVQLVESGGGLVQAGGSLRLSCAASGLTFKSYTMGWYRQAPGKERELVATISGSGTRTYYADSVKGRFTISRDNAKNTVYLQMNSLKPEDTAVYYCARVIWYNNYFRYSGYRSDYWGQGTQVTVSS,high polyreactivity
8,QVQLVESGGGLVQAGGSLRLSCAASGLTFKVYDMGGYRQAPGKERELVAAIWSDGDTYYADSVKGRFTISRDNAKNTVYLQMNSLKPEDTAVYYCAADPVWTVHFVFGNKYDYWGQGTQVTVSS,low polyreactivity
9,QVQLVESGGGLVQAGGSLRLSCAASGLTFKWNTMGWYRQAPGKERELVAAISWRVVSTYYADSVKGRFTISRDNAKNTFYLQMNSLKQEDTAVYYDYWGQGTQVTVSS,low polyreactivity
10,QVQLVESGGGLVQAGGSLRLSCAASGLTFKWYAMGWYRPAPGKERELVAAISRDGSTYYADSVKGRFTISRDNAKNTVYLQMNSLKPEDTAVYNCAADIWPSSLLADEYDYWGQGTQVTVSS,high polyreactivity
11,QVQLVESGGGLVQAGGSLRLSCAASGLTFKYYAMGWYRQAPGKERELVAAISWRGGSTYYADSVKGRFTISRDNAKNTVYLQMNSLKPEDTAVYYCAAPGNNVRNAPRKRDYWGQGTQVTVSS,high polyreactivity
12,QVQLVESGGGLVQAGGSLRLSCAASGLTFLKNAMGWYRQAPGKERELVAAISDGGSTNYADSVKGRFTISRDNAKNTVYLQMNSLKPEDTAVYYCAAVYTSASYGSWGQGTQVTVSS,low polyreactivity
13,QVQLVESGGGLVQAGGSLRLSCAASGLTFLRNGMGWYRQAPGKERELVASITRSGARTYYADSVKGRFTISRDNAKNTVYLQMNSLKPEDTAVSYCAARAYVSHYGVSNFGDYYWGQGTQVTVSS,high polyreactivity
14,QVQLVESGGGLVQAGGSLRLSCAASGLTFNVYAMGWSRQAPGTERELVAALTSGGRTYYADSVKGRFTISRDNEKNTVYLQMNSLKPEDTAVYYCSKSRWYGYSLSGAKRQRSFDYWGQGTQVTVSS,high polyreactivity
15,QVQLVESGGGLVQAGGSLRLSCAASGLTFNYYAMGWYRQAPGKERDLVAASTSSGSSTYYADSVKGRFTISRDNAKNTVSLQMNSLKAEDTAVYYCAVSRCSFYWLVDYWGQGTQVTVSS,high polyreactivity
16,QVQLVESGGGLVQAGGSLRLSCAASGLTFNYYAMGWYRQAPGKERELVAAITSSGGRTYYADSVKGRFTISRDNAKNTFYLQMNSLKPEDTAVYYCNTVSYRQGAVWFRYDYWGQGTQVTVSS,high polyreactivity
17,QVQLVESGGGLVQAGGSLRLSCAASGLTFNYYAMGWYRQAPGKERELVASISKRGGTYYADSVKGRFTLSRDNAKNTVYLQMNSLKPEDTAVYYCAADYWFRRNEYDYWGQGTQVTVSS,high polyreactivity
18,QVQLVESGGGLVQAGGSLRLSCAASGLTFPDYAMGWYRQAPGKERELVAAITIDGSTYYADSVKGRFTISRDNAKNTVYLQMNSLTPEDTAVYYCNAQVGVPYAMYYWGQGTQVTVSS,low polyreactivity
19,QVQLVESGGGLVQAGGSLRLSCAASGLTFPFYTMGWYRQAPGKERELVAAISRRGGSTYYADSVKGRFTISRDNAKNTVYLQLNSLKPEDTAVYYCAADKYSWYDYWGQGTQVTVSS,low polyreactivity
20,QVQLVESGGGLVQAGGSLRLSCAASGLTFPHNAMGWYRQAPGKERELVAAITSSGCSTYYADSVKGRFTISRDNAMNSVYLQMNSLKPEDTAVYYCAKRDGTDRLDDYWGQGTQVTVSS,high polyreactivity
21,QVQLVESGGGLVQAGGSLRLSCAASGLTFPHYAMGWYRQAPGKERELVAAISSGGSTHYADSVKGRFTISRDNAKNTVYLQMNSLKPEDTAVYYCAARRHGRRTVQGKFDFWGQGTQVTVSS,high polyreactivity
